This assay has as its target maltose binding protein (MBP)-tagged ubiquitin. The assay is described as follows: ELISA. A general note: An ELISA detects its analyte on a solid surface through an enzyme-linked reagent.

“GST-tagged SUVR1 WIYLD domain (domain or fragment)” registered a binding in ELISA relative to S4WIYLD (set to 1) (relative to S4WIYLD = 1) of 0.65.
Consider “GST-tagged SUVR4 WIYLD domain A32E (domain or fragment)”, for which the reduction of binding relative to wild-type S4WIYLD came to 37%.
Consider “GST-tagged SUVR2 WIYLD domain (domain or fragment)”, for which the binding in ELISA relative to S4WIYLD (set to 1) (relative to S4WIYLD = 1) is 1.23.

These data come from PMC4254770.
